Assay results taken from the DeepSol protein solubility set.

Assay: soluble on expression in E. coli; label from the status in PepcDB or PDB records

Sequence	soluble on expression in E. coli
GSHMAITGTIAAIATAIVPQQGSVGIVRVSGSQAIAIAQTLFDAPGKQVWESHRILYGYIRHPQTRQIVDEALLLLMKAPRSYTREDVVEFHCHGGIIAVQQVLQLCLESGARLAQPGEFTLRAFLNGRLDLTQAESIADLVGARSPQAAQTALAGLQGKLAHPIRQLRANCLDILAEIEARIDFEEDLPPLDDEAIISDIENIAAEISQLLATKDKGELLRTGLKVAIVGRPNVGKSSLLNAWSQSDRAIVTDLPGTTRDVVESQLVVGGIPVQVLDTAGIRETSDQVEKIGVERSRQAANTADLVLLTIDAATGWTTGDQEIYEQVKHRPLILVMNKIDLVEKQLITSLEYPENITQIVHTAAAQKQGIDSLETAILEIVQTGKVQAADMDLAINQRQAAALTQAKMSLEQVQATITQQLPLDFWTIDLRGAIQALGEITGEEVTESVLDRIFSRFCIGK	soluble
GSHMASMTGGQQMGRGSDSSNAITIENNTLWTGAKPSANCVIKEGEDSPDCKLTLVLVKNGGLINGYITLMGASEYTNTLFKNNQVTIDVNLAFDNTGQIITYLSSLKSNLNFKDNQNMATGTITSAKGFMPSTTAYPFITYATETLNEDYIYGECYYKSTNGTLFPLKVTVTLNRRMLASGMAYAMNFSWSLNAEEAPETTEVTLITSPFFFSYIREDD	soluble
GSHMDPLMQKIDISENPDKIYFIRREDGTVHRGQVLQSRTTENAAAPDEYYVHYVGLNRRLDGWVGRHRISDNADDLGGITVLPAPPLAPDQ	soluble
GSHMGQLGGEEWTRHGSFVNKPTRGWLHPNDKVMGPGVSYLVRYMGCVEVLQSMRALDFNTRTQVTREAISLVCEAVPGAKGATRRRKPCSRPLSSILGRSNLKFAGMPITLTVSTSSLNLMAADCKQIIANHHMQSISFASGGDPDTAEYVAYVAKDPVNQRACHILECPEGLAQDVISTIGQAFELRFKQYLR	soluble
GSHMHAKVGDYLVVKGTTTERHDQHAEIIEVRSADGSPPYVVRWLVNGHETTVYPGSDAVVVTATEHAEAEKRAAARAGHAAT	soluble
GSHMKITYPLPPNLPEQLPLLTNCQLEDEAILENHLYQQIDLPNQEVRNLVFRDAVFDHLSLANGQFASFDCSNVRFEACDFSNVEWLSGSFHRVTFLRCNLTGTNFADSYLKDCLFEDCKADYASFRFANFNLVHFNQTRLVESEFFEVTWKKLLLEACDLTESNWLNTSLKGLDFSQNTFERLTFSPNYLSGLKVTPEQAIYLASALGLVIT	soluble
GSHMNLKEQLCFSLYNAQRQVNRYYSNKVFKKYNLTYPQFLVLTILWDESPVNVKKVVTELALDTGTVSPLLKRMEQVDLIKRERSEVDQREVFIHLTDKSETIRPELSNASDKVASASSLSQDEVKELNRLLGKVIHAFDE	soluble
GSHMRLDKFIAQQLGVSRAIAGREIRGNRVTVDGEIVRNAAFKLLPEHDVAYDGNPLAQQHGPRYFMLNKPQGYVCSTDDPDHPTVLYFLDEPVAWKLHAAGRLDIDTTGLVLMTDDGQWSHRITSPRHHCEKTYLVTLESPVADDTAEQFAKGVQLHNEKDLTKPAVLEVITPTQVRLTISEGRYHQVKRMFAAVGNHVVELHRERIGGITLDADLAPGEYRPLTEEEIASVV	soluble
GSHMRSRRVDVMDVMNRLILAMDLMNRDDALRVTGEVREYIDTVKIGYPLVLSEGMDIIAEFRKRFGCRIIAAFKVADIPETNEKICRATFKAGADAIIVHGFPGADSVRACLNVAEEMGREVFLLTEMSHPGAEMFIQGAADEIARMGVDLGVKNYVGPSTRPERLSRLREIIGQDSFLISPGVGAQGGDPGETLRFADAIIVGRSIYLADNPAAAAAGIIESIKDLRIPEDPAANKARKEAELAAATAEQ	soluble
GSHMSNAKTKLGITKYSIVTNSNDSVTLRLMTEHDLAMLYEWLNRSHIVEWWGGEEARPTLADVQEQYLPSVLAQESVTPYIAMLNGEPIGYAQSYVALGSGDGWWEEETDPGVRGIDQLLANASQLGKGLGTKLVRALVELLFNDPEVTKIQTDPSPSNLRAIRCYEKAGFERQGTVTTPDGPAVYMVQTRQAFERTRSDA	soluble
GSHVSKREDGRLDHELRPVIITRGFTENPAGSVLIEFGHTKVLCTASVTEGVPRWRKATGLGWLTAEYAMLPSATHSRSDRESVRGRLSGRTQEISRLIGRSLRACIDLAALGENTIAIDCDVLQADGGTRTAAITGAYVALADAVTYLSAAGKLSDPRPLSCAIAAVSVGVVDGRIRVDLPYEEDSRAEVDMNVVATDTGTLVEIQGTGEGATFARSTLDKLLDMALGACDTLFAAQRDALALPYPGVLPQGPPPPKAFGT	soluble
GSKESPLHGTQNTINKRTQPTFGFTVNWKFSESTTVFTGQCFIDRNGKEVLKTMWLLRSSVNDIGDDWKATRVGIMIFTRLRTQKEGGSGGSARKCSLTGKWTNDLGSNMTIGAVNSRGEFTGTYITAVT	soluble
GSLQDNSSYPDEPWRITEEQREYYVNQFRSLQPDPSSFISGSVAKNFFTKSKLSIPELSYIWELSDADCDGALTLPEFCAAFHLIVARKNGYPLPEGLPPTLQPEFIVTD	soluble
GSLYNDGNRDQRNFGRNQRNNNSNRYRNSRFNSRPRTRSREDDDEVHFDKTTFSKLIHVPKEDNSKEVTLDSLLEEGVLDKEIHKAITRMEFPGLTPVQQKTIKPILSSEDHDVIARAKTGTGKTFAFLIPIFQHLINTKFDSQYMVKAVIVAPTRDLALQIEAEVKKIHDMNYGLKKYACVSLVGGTDFRAAMNKMNKLRPNIVIATPGRLIDVLEKYSNKFFRFVDYKVLDEADRLLEIGFRDDLETISGILNEKNSKSADNIKTLLFSATLDDKVQKLANNIMNKKECLFLDTVDKNEPEAHERIDQSVVISEKFANSIFAAVEHIKKQIKERDSNYKAIIFAPTVKFTSFLCSILKNEFKKDLPILEFHGKITQNKRTSLVKRFKKDESGILVCTDVGARGMDFPNVHEVLQIGVPSELANYIHRIGRTARSGKEGSSVLFICKDELPFVRELEDAKNIVIAKQEKYEPSEEIKSEVLEAVTEEPEDISDIVISLISSYRSCIKEYRFSERRILPEIASTYGVLLNDPQLKIPVSRRFLDKLGLSRSPIGKAMFEIRDY	soluble
GSMAEGRGSRERPDVETQKTELGALMGTTLQRGAQWYLIDSRWFKQWKKYVGFDSWDMYNVGEHNLFPGPIDNSGLFSDPESQTLKEHLIDELDYVLVPAEAWNKLLNWYGCVEGQQPIVRKVVEHGLFVKHCKVEVYLLELKLCENSDPTNVLSCHFSKADTIATIEKEMRKLFNIPAERETRLWNKYMSNTYEQLSKLDNTIQDAGLYQGQVLVIEPQNEDGTWPRQSL	soluble
GSMDPSGVKVLETAEDIQERRQQVLDRYHRFKELSTLRRQKLEDSYRFQFFQRDAEELEKWIQEKLQIASDENYKDPTNLQGKLQKHQAFEAEVQANSGAIVKLDETGNLMISEGHFASETIRTRLMELHRQWELLLEKMREKGIKLLQ	soluble
GSMSLPPIRLPSPYGSDRLVQLAARLRPALCDTLITVGSQEFPAHSLVLAGVSQQLGRRGQWALGEGISPSTFAQLLNFVYGESVELQPGELRPLQEAARALGVQSLEEACWRARGDRA	soluble
GSNKLHLRVVTLIEHPFVFTREVDDEGLCPAGQLCLDPMTNDSSMLDRLFSSLHSSNDTVPIKFKKCCYGYCIDLLEQLAEDMNFDFDLYIVGDGKYGAWKNGHWTGLVGDLLSGTANMAVTSFSINTARSQVIDFTSPFFSTSLGILVRTRGTELSGIHDPKLHHPSQGFRFGTVRESSAEDYVRQSFPEMHEYMRRYNVPATPDGVQYLKNDPEKLDAFIMDKALLDYEVSIDADCKLLTVGKPFAIEGYGIGLPPNSPLTSNISELISQYKSHGFMDVLHDKWYKVVPCGK	soluble
GSNSQVWSALQMSKALQDSAPDRPSPVERIVSRDIARGYERIPIPCVNAVDSEPCPSNYKYVSQNCVTSPMNIDRNITHLQYCVCIDDCSSSNCMCGQLSMRCWYDKDGRLLPEFNMAEPPLIFECNHACSCWRNCRNRVVQNGLRARLQLYRTRDMGWGVRSLQDIPPGTFVCEYVGELISDSEADVREEDSYLFDLDNKDGEVYCIDARFYGNVSRFINHHCEPNLVPVRVFMAHQDLRFPRIAFFSTRLIEAGEQLGFDYGERFWDIKGKLFSCRCGSPKCRHS	soluble
GSPGISGGGGGIPVIDGPTQILVRDVSDTVAFVEWTPPRAKVDFILLKYGLVGGEGGKTTFRLQPPLSQYSVQALRPGSRYEVSISAVRGTNESDASSTQFTTEIDAPKNLRVGSRTATSLDLEWDNSEAEAQEYKVVYSTLAGEQYHEVLVPKGIGPTTKTTLTDLVPGTEYGVGISAVMNSKQSIPATMNARTELDSPRDLMVTASSETSISLIWTKASGPIDHYRITFTPSSGISSEVTVPRDRTSYTLTDLEPGAEYIISITAERGRQQSLESTVDAFT	soluble
GSSANDWQCKTCSNVNWARRSECNMCNTPKYAK	soluble
GSSMVTGGMASKWDQKGMDIAYEEALLGYKEGGVPIGGCLINNKDGSVLGRGHNMRFQKGSATLHGEISTLENCGRLEGKVYKDTTLYTTLSPCDMCTGAIIMYGIPRCVIGENVNFKSKGEKYLQTRGHEVVVVDDERCKKLMKQFIDERPQDWFEDIGE	soluble
GVKCEPIEELTINVPEEYSSKIIDMVTRRKGEMTMMENTGERINLEFDMPSRGIIGLRTNVLTASAGEAIMAHRFKEYQPFKGDIERRTNGSIIAMESGTAFAYAIDKLQDRGKFFIFPQEEVYAGQV	not soluble
GWIQELTAGHAEHTPETEEYGISSFVYKRRLPFHSTRFYRWLDQMPKNVVRAKGIVWCASHNNLALLMSQAGPSVTIEPVSYWVAALPKLEQEQVKQQEPEILEEWDPEFGDRLTQLVFIGTDLDEETITKELDQCLLTEYEFDSDWSLFEDPFKWKLNQ	not soluble
HGPEGTVEIETVKLARSVFSKLHEICCSWVKDFPLRRRPQLYYETSIHAIKNMRRKMEDKHVCIPDFNMLFNLEDQEEQAYFAVFDGHGGVDAAIYASIHLHVNLVRQEMFPHDPAEALCRAFRVTDERFVQKAARESLRCGTTGVVTFIRGNMLHVAWVGDSQVMLVRKGQAVELMKPHKPDREDEKQRIEALGGCVVWFGAWRVNGSLSVSRAIGDAEHKPYICGDADSASTVLDGTEDYLILACDGFYDTVNPDEAVKVVSDHLKENNGDSSMVAHKLVASARDAGSSDNITVIVVFLRDMNKVRASSPSPL	soluble
HGSSHHHHHHSSENLYFQGHMWNSRKVGVLGGGQLGRMLVESANRLNIQVNVLDADNSPAKQISAHDGHVTGSFKEREAVRQLAKTCDVVTAEIEHVDTYALEEVASEVKIEPSWQAIRTIQNKFNQKEHLRKYGIPMAEHRELVENTPAELAKVGEQLGYPLMLKSKTMAYDGRGNFRVNSQDDIPEALEALKDRPLYAEKWAYFKMELAVIVVKTKDEVLSYPTVETVQEDSICKLVYAPARNVSDAINQKAQELARKAVAAFDGKGVFGVEMFLLEDDSIMLCEIASRIHNSGHYTIEGCALSQFDAHLRAILDLPIPAQSLEIRQPSIMLNIIGGAAPDTHLQAAECALSIPNASIHLYSKGAAKPGRKMGHITVTAPTMHEAETHIQPLIDVVDRIRA	soluble
HGTSDATLLKGVGHLYGTALPVGGLGTRSVLTAHSGIQKSTFFDNLEKVKKGDAIYVRNIGETLKYQVRDIEIIRPAEIDRIQPIPDRDLITLVTCTPYGINTHRLLVTAERVPMEPGEADRAFAGDGIVWQWWMK	not soluble
